# Experimental data taken from patent US6509383.
# What was measured:
# [1] = biological target: purified calf thymus DNA polymerase δ (calf (bovine)) (UniProt P28339); test: cell-based or functional assay
# [2] = biological target: his-tagged Drosophila PCNA (UniProt P17917)
# his-tagged Drosophila PCNA, sequence (P17917 whole entry): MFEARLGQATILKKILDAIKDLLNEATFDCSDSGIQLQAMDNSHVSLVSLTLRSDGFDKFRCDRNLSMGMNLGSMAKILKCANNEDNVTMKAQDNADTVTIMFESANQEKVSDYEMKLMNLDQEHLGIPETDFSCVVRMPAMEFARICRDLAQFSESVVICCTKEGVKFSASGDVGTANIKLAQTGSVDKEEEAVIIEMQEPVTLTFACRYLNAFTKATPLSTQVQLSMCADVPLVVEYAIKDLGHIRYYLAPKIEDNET
# purified calf thymus DNA polymerase δ (calf (bovine)), sequence (P28339 whole entry, stated change not applied): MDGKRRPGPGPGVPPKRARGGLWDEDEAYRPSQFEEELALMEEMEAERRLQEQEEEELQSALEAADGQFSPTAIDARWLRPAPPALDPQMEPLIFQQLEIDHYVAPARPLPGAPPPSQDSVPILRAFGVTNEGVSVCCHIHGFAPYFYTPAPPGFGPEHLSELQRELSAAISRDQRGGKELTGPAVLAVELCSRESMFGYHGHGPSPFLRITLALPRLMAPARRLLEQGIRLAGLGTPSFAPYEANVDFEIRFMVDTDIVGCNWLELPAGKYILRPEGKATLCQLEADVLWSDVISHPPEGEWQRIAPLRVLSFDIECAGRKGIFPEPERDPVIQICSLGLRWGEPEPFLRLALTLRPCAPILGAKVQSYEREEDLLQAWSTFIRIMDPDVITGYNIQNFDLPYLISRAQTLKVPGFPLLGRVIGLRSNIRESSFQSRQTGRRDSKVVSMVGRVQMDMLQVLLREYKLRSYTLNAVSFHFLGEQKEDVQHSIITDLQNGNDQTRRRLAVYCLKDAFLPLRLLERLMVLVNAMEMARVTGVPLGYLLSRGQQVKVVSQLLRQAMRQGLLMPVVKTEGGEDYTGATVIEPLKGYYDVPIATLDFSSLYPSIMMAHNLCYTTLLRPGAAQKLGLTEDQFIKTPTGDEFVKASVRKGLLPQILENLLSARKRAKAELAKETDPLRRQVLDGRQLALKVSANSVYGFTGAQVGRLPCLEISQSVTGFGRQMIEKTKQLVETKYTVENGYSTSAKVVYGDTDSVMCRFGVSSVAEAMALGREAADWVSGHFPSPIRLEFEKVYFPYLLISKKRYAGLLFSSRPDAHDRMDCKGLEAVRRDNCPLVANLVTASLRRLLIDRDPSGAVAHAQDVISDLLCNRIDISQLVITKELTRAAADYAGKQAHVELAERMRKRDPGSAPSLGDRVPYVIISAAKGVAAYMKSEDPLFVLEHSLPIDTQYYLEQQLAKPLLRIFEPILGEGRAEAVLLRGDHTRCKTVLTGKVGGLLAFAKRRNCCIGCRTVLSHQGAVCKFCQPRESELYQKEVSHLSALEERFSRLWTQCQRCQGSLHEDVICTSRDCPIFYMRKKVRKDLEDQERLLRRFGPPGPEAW
Substance,"solution assay of pol δ: extended DNA synthesis beyond model abasic template lesions, compared with wild-type PCNA (phosphorimager) [1]","in situ DNA polymerase assay on Ni2+-IDA-paper ([alpha-32P]dGTP incorporation, PhosphorImager) [2]"
NH2-terminally his-tagged E^85>K mutant human PCNA (from UniProt P12004 1-261),40%,–
purified calf thymus DNA polymerase δ,–,almost no reactivity was observed corresponding to the spot of Drosophila PCNA
